Assay results: patent publication US20250152729A1 (CANCER RESEARCH TECHNOLOGY, published 2025)

T1: mouse SEMA4A expressed on expi293 cells (UniProt ID Q62178) (mouse, UniProt Q62178 33-760)
T1 construct: Transient transfection in expi293 cells
T1 sequence: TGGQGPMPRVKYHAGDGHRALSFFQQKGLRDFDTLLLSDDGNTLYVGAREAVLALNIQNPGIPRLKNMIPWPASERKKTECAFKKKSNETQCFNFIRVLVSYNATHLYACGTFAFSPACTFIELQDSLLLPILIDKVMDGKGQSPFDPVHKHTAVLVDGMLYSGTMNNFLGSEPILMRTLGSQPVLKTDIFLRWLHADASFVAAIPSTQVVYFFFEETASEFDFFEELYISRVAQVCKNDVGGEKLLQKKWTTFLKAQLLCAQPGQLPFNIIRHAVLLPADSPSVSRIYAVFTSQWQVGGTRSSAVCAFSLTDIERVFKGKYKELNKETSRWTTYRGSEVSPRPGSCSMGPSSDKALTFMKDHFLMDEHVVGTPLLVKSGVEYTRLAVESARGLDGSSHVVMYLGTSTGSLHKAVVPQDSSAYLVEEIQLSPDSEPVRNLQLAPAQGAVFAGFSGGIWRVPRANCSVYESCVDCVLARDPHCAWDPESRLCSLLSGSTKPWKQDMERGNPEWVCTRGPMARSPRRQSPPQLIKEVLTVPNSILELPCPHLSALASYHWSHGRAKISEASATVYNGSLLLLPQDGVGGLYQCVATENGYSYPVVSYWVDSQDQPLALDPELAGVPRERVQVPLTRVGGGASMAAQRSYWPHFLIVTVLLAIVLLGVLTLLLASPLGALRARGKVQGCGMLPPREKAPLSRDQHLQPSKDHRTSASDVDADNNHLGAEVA

T2: human SEMA4B expressed on expi293 cells (human, UniProt Q9NPR2 44-837)
T2 construct: whole, on cells
T2 sequence (looked up): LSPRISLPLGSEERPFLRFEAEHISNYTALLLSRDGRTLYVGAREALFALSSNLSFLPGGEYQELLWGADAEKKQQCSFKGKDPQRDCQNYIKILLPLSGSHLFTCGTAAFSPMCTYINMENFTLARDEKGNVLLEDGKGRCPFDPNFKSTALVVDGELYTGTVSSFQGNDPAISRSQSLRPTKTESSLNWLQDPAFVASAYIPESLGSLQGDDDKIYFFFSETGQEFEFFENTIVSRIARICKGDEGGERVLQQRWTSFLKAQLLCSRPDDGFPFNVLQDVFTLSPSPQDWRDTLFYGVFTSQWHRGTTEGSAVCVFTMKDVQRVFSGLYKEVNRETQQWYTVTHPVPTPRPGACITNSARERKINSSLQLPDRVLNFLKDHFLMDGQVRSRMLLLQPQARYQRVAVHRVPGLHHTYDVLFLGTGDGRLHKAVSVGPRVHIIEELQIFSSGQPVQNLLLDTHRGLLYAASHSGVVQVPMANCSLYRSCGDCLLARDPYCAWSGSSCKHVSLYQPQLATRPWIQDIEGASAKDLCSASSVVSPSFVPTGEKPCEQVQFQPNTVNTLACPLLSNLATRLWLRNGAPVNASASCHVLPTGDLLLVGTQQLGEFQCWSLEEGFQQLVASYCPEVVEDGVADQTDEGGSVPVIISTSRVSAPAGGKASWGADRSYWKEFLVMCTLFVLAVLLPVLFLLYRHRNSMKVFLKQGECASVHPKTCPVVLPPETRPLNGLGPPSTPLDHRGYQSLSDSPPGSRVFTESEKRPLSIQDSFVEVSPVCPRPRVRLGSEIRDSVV

T3: human SEMA4A expressed on cells (UniProt ID Q9H3S1, isoform 1) (human, UniProt Q9H3S1 33-761)
T3 construct: Cell-surface SEMA4A: endogenous on MM.1S, NCI-H929 and Karpas-25 cells, or expi293 cells transfected with Origene SC323738; also called human Semaphorin4A; SEMA4A endogenously expressed on MM.1S cells
T3 sequence: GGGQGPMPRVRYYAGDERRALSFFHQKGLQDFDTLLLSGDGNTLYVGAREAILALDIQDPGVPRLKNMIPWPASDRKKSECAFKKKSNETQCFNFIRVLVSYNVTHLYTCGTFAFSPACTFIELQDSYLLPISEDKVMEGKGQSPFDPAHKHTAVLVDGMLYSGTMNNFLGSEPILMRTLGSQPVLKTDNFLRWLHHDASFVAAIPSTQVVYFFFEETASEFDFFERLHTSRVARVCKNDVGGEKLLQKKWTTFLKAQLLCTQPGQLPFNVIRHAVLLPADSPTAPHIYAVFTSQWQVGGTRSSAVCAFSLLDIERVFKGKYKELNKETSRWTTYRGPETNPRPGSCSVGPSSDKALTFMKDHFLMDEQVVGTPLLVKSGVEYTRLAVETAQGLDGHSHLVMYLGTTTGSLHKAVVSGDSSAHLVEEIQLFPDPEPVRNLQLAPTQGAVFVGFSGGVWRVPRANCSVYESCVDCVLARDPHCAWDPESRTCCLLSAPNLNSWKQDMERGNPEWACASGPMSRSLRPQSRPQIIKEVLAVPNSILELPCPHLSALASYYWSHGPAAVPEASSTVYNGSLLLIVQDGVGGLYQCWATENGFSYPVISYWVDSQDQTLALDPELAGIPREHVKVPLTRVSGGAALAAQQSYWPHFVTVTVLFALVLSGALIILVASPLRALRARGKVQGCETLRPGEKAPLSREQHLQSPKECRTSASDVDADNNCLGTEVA

T4: cynomolgus SEMA4A expressed on expi293 cells (UniProt ID G7NV79) (cynomolgus, UniProt Q9H3S1 33-761 (human entry))
T4 construct: Transient transfection in expi293 cells; also called cyno SEMA4A
T4 chain: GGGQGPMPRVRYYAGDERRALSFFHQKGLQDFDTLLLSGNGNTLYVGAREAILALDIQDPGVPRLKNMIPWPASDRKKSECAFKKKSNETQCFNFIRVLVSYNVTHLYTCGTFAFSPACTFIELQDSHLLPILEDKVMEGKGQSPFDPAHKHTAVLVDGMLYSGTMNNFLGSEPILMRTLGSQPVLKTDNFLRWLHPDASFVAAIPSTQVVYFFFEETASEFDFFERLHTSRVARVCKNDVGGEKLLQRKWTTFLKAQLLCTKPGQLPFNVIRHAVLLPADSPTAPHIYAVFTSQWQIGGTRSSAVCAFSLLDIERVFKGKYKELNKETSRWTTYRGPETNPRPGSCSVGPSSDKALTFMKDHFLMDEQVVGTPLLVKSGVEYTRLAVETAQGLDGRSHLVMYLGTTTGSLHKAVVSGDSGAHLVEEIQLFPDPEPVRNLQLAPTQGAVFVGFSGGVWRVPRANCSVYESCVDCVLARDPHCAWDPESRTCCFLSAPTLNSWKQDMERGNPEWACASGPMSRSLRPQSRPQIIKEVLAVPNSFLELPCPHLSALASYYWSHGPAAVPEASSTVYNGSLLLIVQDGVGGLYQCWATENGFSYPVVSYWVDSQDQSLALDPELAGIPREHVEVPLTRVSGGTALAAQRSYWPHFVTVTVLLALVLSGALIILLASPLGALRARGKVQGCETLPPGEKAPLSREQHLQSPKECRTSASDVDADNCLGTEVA


Assays:
[1] = target: T1, mouse SEMA4A expressed on expi293 cells …; test: Mirrorball direct binding, dilution series on expi293 cells transiently transfected with mouse SEMA4A, anti-human Alexa Fluor 647
Source text: (§1) Hits from the primary screening were re-formatted into the human Alya IgG1 vector and re-expressed and purified as described in section 4.1. In addition, a single clone was identified that contained an Asparagine deamidation motif (Asn Gly) within its VHCDR2. This potential sequence liability was de-risked by synthesising de novo two clonal variant VH genes (Asn Ala and Gln Gly) and cloning these sequences into the human Alya IgG1 expression vector. To determine the specificity profile of each purified human Alya IgG1, a dilution series was tested for binding to human SEMA4A, mouse SEMA4A, cyno SEMA4A, human SEMA4B and mock transfected cells (transient transfections set up in expi 293 cells.) The five assays employed methods described in section 2.3, using the appropriate cells and substituting the un-purified scFv periplasmic preparation with the recombinant human Alya IgG1 dilution series. Data was analysed as Count x median mean intensity (x FLU).

[2] = target: T2, human SEMA4B expressed on expi293 cells; test: Mirrorball direct binding, dilution series on expi293 cells transiently transfected with human SEMA4B, anti-human Alexa Fluor 647
Source text: as §1

[3] = target: T3, human SEMA4A expressed on cells …; test: Mirrorball direct binding, dilution series on expi293 cells transiently transfected with human SEMA4A, anti-human Alexa Fluor 647
Source text: as §1

[4] = target: T4, cynomolgus SEMA4A expressed on expi293 …; test: Mirrorball direct binding, dilution series on expi293 cells transiently transfected with cynomolgus SEMA4A, anti-human Alexa Fluor 647
Source text: as §1

Binder | binding result [1] | binding result [2] | binding result [3] | binding result [4]
C0120923 (antibody, V domains shown, 239iCys and S442C (EU numbering) in the constant region, one of the 6 germlined clones of m49; purified, unconjugated; also called C0120923 germlined human Alya IgG1) VH: not shown VL: NFMLTQPHSVSESPGKTVTISCTGSGGNIVDNFVQWHQQRPGSSPTTVIYEDDQRPSGVPDRFSASVDSSSNSGSLTISGLKTEDEADYYCQSYDGANRWVFGGGTKLTVL | binds | no binding (tested: log (M) -8 (1e-8 M)) | binds | binds
C0120924 (antibody, V domains shown, 239iCys and S442C (EU numbering) in the constant region, one of the 6 germlined clones of m49; purified, unconjugated; also called C0120924 germlined human Alya IgG1) VH: QVQLVQSGAEVKKPGASVKVSCKASGYKLNDPGVHGVSWVRQAPGQGLEWMGWISTLNGDTRYAQKFQGRVTMTTDSSTSTIYMELRSLRSDDTAVYYCARDDYTAIFDFWGQGTLVTVSS VL: SSVLTQPPSVSVAPGQTARITCGGSNIGSQSVHWYQQKPGQAPVLVVYDDSDRPSGIPERFSGSKSGNTATLTISRVEAGDEADYYCQVWDSSTDHHVFGTGTKVTVL | binds | no binding (tested: log (M) -8 (1e-8 M)) | binds | binds
C0120920 (antibody, V domains shown, 239iCys and S442C (EU numbering) in the constant region, purified, unconjugated; also called C0120920 human Alya IgG1 (unconjugated)) VH: EVQLVQSGPEVKKPGASVKISCKASGYKLNDPGVHGVSWVRQAPGQGLEWMGWISTLNADTRYAQKFQGRVTMATDSSTSTIYMDLRSLKSDDTALYYCARDDYTAIFDFWGRGTLVTVSS VL: QSVLTQPPSVSVAPGQTASITCGGSNIGSQSVHWYQQKPGQAPVLVVYDDSDRPSGIPERFSGSKSGNTASLILSRVEAGDEADYYCQVWDSSTDHHVFGTGTKVTVL | binds | no binding (tested: log (M) -8 (1e-8 M)) | binds | –
C0120921 (antibody, V domains shown, 239iCys and S442C (EU numbering) in the constant region, purified, unconjugated; also called C0120921 human Alya IgG1 (unconjugated)) VH: EVQLVQSGPEVKKPGASVKISCKASGYKLNDPGVHGVSWVRQAPGQGLEWMGWISTLQGDTRYAQKFQGRVTMATDSSTSTIYMDLRSLKSDDTALYYCARDDYTAIFDFWGRGTLVTVSS VL: QSVLTQPPSVSVAPGQTASITCGGSNIGSQSVHWYQQKPGQAPVLVVYDDSDRPSGIPERFSGSKSGNTASLILSRVEAGDEADYYCQVWDSSTDHHVFGTGTKVTVL | binds | no binding (tested: log (M) -8 (1e-8 M)) | binds | –
